Measured values published in patent US20250171534A1 (D2M BIOTHERAPEUTICS, published 2025).
Each block holds one binder with its values, some of them ahead of it.

Key:
[1] = target: T1, human LILRB2 expressed on cells (human, UniProt Q8N423 22-597); assay: flow cytometry, CHO-LILRB2 cells
T1 construct: In 293T cells it was expressed from pCMV3-LILRB2-GFP; also called CHO-LILRB2; Jurkat-LILRB2

[2] = target: T1, human LILRB2 expressed on cells; assay: flow cytometry, CHO-LILRB2 cells; remark: listed apart in the source
[3] = target: T2, human LILRB1 expressed on cells (human, UniProt Q8NHL6 24-650); assay: flow cytometry, CHO-LILRB1 cells
T2 construct: In 293T cells it was expressed from pCMV3-LILRB1-GFP; also called CHO-LILRB1; Jurkat-LILRB1
T2 sequence (Q8NHL6 other isoform, or with tags, fused parts or gaps limits assumed): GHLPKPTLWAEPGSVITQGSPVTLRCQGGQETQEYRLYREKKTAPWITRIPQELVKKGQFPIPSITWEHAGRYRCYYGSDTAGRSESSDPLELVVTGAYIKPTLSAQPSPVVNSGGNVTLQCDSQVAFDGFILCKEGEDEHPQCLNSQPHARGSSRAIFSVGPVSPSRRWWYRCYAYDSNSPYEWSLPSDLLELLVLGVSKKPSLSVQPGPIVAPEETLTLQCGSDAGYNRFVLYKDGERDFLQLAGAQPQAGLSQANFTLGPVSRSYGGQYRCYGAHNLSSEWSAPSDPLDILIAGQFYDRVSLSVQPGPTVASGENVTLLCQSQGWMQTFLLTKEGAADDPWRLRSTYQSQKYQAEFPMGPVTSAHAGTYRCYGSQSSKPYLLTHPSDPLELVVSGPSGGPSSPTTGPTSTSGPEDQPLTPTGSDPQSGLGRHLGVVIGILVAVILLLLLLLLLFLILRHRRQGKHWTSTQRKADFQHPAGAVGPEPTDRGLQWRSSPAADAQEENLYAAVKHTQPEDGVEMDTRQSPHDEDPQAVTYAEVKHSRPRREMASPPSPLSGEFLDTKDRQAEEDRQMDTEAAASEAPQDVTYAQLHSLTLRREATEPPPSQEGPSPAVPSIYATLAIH

[4] = target: T3, LILRB1-ECD-HIS (SinoBiological Cat #: 16014-H02H) (human, UniProt Q8NHL6 24-461); assay: SPR (Carterra LSA), antibody captured, antigen injected;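 also: kd obtained from kinetic analysis of antibody binding to the antigen, with association and dissociation phases fitted in the instrument software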
T3 construct: Bought protein; also called monomeric antigen LILRB1-ECD-HIS; not shown: His tag
T3 sequence (Q8NHL6 other isoform, or with tags, fused parts or gaps H02H H02H): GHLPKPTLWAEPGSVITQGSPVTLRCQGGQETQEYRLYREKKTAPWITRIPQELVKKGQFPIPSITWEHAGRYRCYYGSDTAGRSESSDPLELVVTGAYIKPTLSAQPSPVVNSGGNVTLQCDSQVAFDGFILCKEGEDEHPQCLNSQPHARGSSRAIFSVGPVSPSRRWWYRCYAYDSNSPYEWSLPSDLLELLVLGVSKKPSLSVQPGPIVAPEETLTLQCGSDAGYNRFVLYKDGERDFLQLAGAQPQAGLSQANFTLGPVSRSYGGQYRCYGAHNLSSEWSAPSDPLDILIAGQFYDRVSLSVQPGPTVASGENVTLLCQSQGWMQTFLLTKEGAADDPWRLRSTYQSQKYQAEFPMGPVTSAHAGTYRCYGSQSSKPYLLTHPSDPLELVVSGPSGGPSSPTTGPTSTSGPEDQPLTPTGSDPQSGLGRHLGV

[5] = target: T4, LILRB2-ECD-HIS (SinoBiological Cat #: 14132-H02H) (human, UniProt Q8N423 22-460); assay: as above
T4 construct: Bought protein; also called monomeric antigen LILRB2-ECD-HIS; not shown: His tag
T4 sequence (Q8N423 other isoform, or with tags, fused parts or gaps H02H H02H): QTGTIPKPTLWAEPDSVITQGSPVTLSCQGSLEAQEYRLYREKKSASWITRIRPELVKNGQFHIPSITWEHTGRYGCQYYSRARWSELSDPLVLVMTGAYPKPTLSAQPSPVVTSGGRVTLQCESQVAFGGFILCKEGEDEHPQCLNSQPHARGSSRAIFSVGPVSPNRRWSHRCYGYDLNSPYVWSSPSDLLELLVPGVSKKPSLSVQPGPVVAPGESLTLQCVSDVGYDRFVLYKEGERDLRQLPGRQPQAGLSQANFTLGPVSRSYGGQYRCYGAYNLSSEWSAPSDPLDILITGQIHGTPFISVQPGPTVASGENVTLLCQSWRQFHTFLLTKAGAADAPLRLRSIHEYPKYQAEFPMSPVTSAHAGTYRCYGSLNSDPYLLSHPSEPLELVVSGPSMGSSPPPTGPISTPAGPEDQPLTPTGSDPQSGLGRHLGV

[6] = target: T1, human LILRB2 expressed on cells; assay: flow cytometry on CHO-LILRB2 cells (CHO-RB2); D2M002-126 as stock or kept in PBS or human plasma at 37 °C for 1, 2 or 3 weeks; labelled anti-human Fc, gMFI
[7] = target: T2, human LILRB1 expressed on cells; assay: flow cytometry, Jurkat-LILRB1 cells; blocked ligand: APC HLA-G trimer tetramer
[8] = target: T1, human LILRB2 expressed on cells; assay: flow cytometry on CHO-LILRB2 cells, non-linear fit of the curves of FIG. 26B
[9] = target: T5, LILRB2-ECD-His (SinoBiological, Cat #: 14132-H08H-B) (Homo sapiens (Human), UniProt Q8N423 22-460, biotinylated (site not stated)); assay: competition ELISA: plate coated with SEMA4A, biotinylated LILRB2 pre-incubated with titrated antibody, streptavidin-HRP and TMB, OD450
T5 sequence (Q8N423 other isoform, or with tags, fused parts or gaps H08H H08H): as the sequence (Q8N423 other isoform, or with tags, fused parts or gaps H02H H02H) above

[10] = target: T5, LILRB2-ECD-His (SinoBiological, Cat #: …); assay: competition ELISA: plate coated with ANGPTL5, biotinylated LILRB2 pre-incubated with titrated antibody, streptavidin-HRP and TMB, OD450
[11] = target: T6, LILRB3 expressed on cells (human, UniProt O75022 24-631); assay: flow cytometry on CHO-LILRB3 cells (CHO-RB3), titrated antibody, labelled anti-human Fc, gMFI
T6 construct: whole, on cells; Expressed with a GFP tag from the bought plasmid; also called human LILRB3; CHO-LILRB3

[12] = target: T4, LILRB2-ECD-HIS (SinoBiological Cat #: …); assay: SPR (Carterra), LILRB2-ECD-his
[13] = target: T5, LILRB2-ECD-His (SinoBiological, Cat #: …); assay: competition ELISA: plate coated with MAG, biotinylated LILRB2 pre-incubated with titrated antibody, streptavidin-HRP and TMB, OD450
[14] = target: T1, human LILRB2 expressed on cells; assay: flow cytometry, Jurkat-LILRB2 cells; blocked ligand: APC HLA-G monomer tetramer
[15] = target: T7, LILRA1 expressed on cells (human, UniProt O75019 17-489); assay: flow cytometry on CHO-LILRA1 cells (CHO-RA1), titrated antibody, labelled anti-human Fc, gMFI
T7 construct: whole, on cells; GFP-tagged; also called human LILRA1; CHO-LILRA1
T7 sequence (O75019 17-489): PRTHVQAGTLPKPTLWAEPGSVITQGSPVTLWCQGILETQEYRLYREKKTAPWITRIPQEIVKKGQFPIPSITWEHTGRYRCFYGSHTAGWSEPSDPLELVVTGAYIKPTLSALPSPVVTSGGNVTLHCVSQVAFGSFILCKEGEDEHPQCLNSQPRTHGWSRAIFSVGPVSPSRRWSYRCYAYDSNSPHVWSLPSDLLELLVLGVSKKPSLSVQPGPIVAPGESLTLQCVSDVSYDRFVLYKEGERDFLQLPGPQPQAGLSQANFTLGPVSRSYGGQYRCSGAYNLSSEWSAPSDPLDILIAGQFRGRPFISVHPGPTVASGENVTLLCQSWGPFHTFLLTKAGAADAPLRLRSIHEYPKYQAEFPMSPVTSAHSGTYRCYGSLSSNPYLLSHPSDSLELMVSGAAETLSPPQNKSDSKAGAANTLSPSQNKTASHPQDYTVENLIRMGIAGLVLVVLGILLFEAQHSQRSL

[16] = target: T3, LILRB1-ECD-HIS (SinoBiological Cat #: …); assay: BLI (Gator), RB1-ECD-his
[17] = target: T1, human LILRB2 expressed on cells; assay: flow cytometry on CHO-LILRB2 cells (CHO-RB2), titrated antibody, labelled anti-human Fc, gMFI
[18] = target: T2, human LILRB1 expressed on cells; assay: flow cytometry on CHO-LILRB1 cells (CHO-RB1); D2M002-126 as stock or kept in PBS or human plasma at 37 °C for 1, 2 or 3 weeks; labelled anti-human Fc, gMFI
[19] = target: T8, LILRA6 expressed on cells (human, UniProt Q6PI73 24-481); assay: flow cytometry on CHO-LILRA6 cells (CHO-RA6), titrated antibody, labelled anti-human Fc, gMFI
T8 construct: whole, on cells; GFP-tagged; also called human LILRA6; CHO-LILRA6
T8 sequence (Q6PI73 24-481): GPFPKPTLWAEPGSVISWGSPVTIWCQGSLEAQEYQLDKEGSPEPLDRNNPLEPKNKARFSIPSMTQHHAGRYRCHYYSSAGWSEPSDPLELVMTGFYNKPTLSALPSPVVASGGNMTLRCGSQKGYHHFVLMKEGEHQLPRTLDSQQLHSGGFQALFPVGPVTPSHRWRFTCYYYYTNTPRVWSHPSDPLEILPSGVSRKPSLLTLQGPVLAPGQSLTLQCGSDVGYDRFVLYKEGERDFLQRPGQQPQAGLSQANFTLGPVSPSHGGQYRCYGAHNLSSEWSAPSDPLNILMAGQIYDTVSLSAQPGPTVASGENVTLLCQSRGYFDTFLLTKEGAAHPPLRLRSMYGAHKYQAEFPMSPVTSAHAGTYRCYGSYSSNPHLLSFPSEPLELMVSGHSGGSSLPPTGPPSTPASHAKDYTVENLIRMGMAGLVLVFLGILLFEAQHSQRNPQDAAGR

[20] = target: T1, human LILRB2 expressed on cells; assay: flow cytometry, Jurkat-LILRB2 cells
[21] = target: T3, LILRB1-ECD-HIS (SinoBiological Cat #: …); assay: SPR (Carterra), LILRB1-ECD-his
[22] = target: T4, LILRB2-ECD-HIS (SinoBiological Cat #: …); assay: BLI (Gator), RB2-ECD-his
[23] = target: T5, LILRB2-ECD-His (SinoBiological, Cat #: …); assay: competition ELISA: plate coated with CD1C, biotinylated LILRB2 pre-incubated with titrated antibody, streptavidin-HRP and TMB, OD450
[24] = target: T5, LILRB2-ECD-His (SinoBiological, Cat #: …); assay: competition ELISA: plate coated with ANGPTL2, biotinylated LILRB2 pre-incubated with titrated antibody, streptavidin-HRP and TMB, OD450
[25] = target: T2, human LILRB1 expressed on cells; assay: flow cytometry on CHO-LILRB1 cells, non-linear fit of the curves of FIG. 26A
[26] = target: T7, LILRA1 expressed on cells; assay: flow cytometry on CHO-LILRA1 cells, non-linear fit of the curves of FIG. 26E
[27] = target: T2, human LILRB1 expressed on cells; assay: flow cytometry, Jurkat-LILRB1 cells
[28] = target: T2, human LILRB1 expressed on cells; assay: flow cytometry on CHO-LILRB1 cells (CHO-RB1), titrated antibody, labelled anti-human Fc, gMFI
[29] = target: T5, LILRB2-ECD-His (SinoBiological, Cat #: …); assay: competition ELISA: plate coated with CD1D, biotinylated LILRB2 pre-incubated with titrated antibody, streptavidin-HRP and TMB, OD450

T1 sequence (Q8N423 other isoform, or with tags, fused parts or gaps limits assumed): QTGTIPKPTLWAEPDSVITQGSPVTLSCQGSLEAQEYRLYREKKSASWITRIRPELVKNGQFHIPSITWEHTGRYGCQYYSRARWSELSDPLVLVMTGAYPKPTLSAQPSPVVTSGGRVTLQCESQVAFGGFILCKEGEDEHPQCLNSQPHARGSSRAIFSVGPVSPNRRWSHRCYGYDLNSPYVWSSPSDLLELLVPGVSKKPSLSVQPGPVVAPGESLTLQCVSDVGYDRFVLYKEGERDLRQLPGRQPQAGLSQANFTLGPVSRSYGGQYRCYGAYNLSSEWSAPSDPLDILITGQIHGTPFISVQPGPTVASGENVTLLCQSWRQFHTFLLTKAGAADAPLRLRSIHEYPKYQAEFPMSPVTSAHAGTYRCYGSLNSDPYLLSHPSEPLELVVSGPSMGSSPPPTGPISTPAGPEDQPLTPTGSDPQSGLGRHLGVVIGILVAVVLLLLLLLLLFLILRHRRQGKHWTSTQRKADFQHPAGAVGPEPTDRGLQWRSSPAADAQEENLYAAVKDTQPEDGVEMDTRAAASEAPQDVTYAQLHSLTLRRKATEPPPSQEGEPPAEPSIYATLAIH

- EC50 [1]: 0.061 mg/L
- gMFI (max) [1]: 22900
- EC50 (read off the curve) [2]: ~0.06 mg/L
- binding result [3]: no binding (tested: 5 µg/mL)
- Kd [4]: 1000 nM
- Kd [5]: 4.85 nM
B1: D2M002-044 (antibody, human IgG1, V domains shown)
VH: EVQLQQSGAELVRPGALVKLSCKGSGFNIKDYYMHWVRQRPEQGLEWIGWIDPENGNTVYAPKFQGKASITSDTSSNIAYLQFSSLTSEDTAVYYCARSRDHGAMDYWGQGTSVTVSS
VL: DVQITQSPAIMSASPGEKVTLTCSASSSVSSSNLYWYQQKPGSSPKLWIYSTSNLASGVPARFSGSGFGTSYALTISSMEAEDAASYFCHQWSSYPYTFGGGTKLEIK
notes: Hit; also called clone #44

- EC50 (read off the curve) [6]: ~0.1 mg/L
- IC50 [7]: 0.304 mg/L
- EC50 [8]: 0.206 mg/L
- MaxMFI [8]: 33600
- IC50 (read off the curve) [9]: ~1 mg/L
- IC50 (read off the curve) [10]: ~1 mg/L
- Kd [12]: 0.119 nM
- koff [12]: 5.89e-05 s⁻¹
- kon [12]: 496000 M⁻¹ s⁻¹
- IC50 (read off the curve) [13]: ~1 mg/L
- IC50 [14]: 0.015 mg/L
- EC50 (read off the curve) [15]: ~0.1 mg/L
- Kd [16]: 0.366 nM
- EC50 (read off the curve) [17]: ~0.2 mg/L
- EC50 (read off the curve) [18]: ~0.3 mg/L
- EC50 [20]: 0.081 mg/L
- Kd [21]: 0.515 nM
- koff [21]: 2.17e-05 s⁻¹
- kon [21]: 42100 M⁻¹ s⁻¹
- Kd [22]: 0.0482 nM
- IC50 (read off the curve) [23]: ~2 mg/L
- IC50 (read off the curve) [24]: ~1 mg/L
- EC50 [25]: 0.388 mg/L
- MaxMFI [25]: 113000
- EC50 [26]: 0.102 mg/L
- MaxMFI [26]: 27500
- EC50 [27]: 1.45 mg/L
- EC50 (read off the curve) [28]: ~0.4 mg/L
- IC50 (read off the curve) [29]: ~2 mg/L
B2: D2M002-126 (antibody, V domains shown)
VH: QVQLVQSGAEVKKPGASVKVSCKASGYTFTSYWIEWVRQAPGQGLEWIGEILPGDESTNYNAKFKGRVTFTTDTSTSTAYMELRSLRSDDTAVYYCARSGAGGYDSGAFAYWGQGTLVTVSS
VL: AIQLTQSPSSLSASVGDRVTITCRASESVDTYGNSFMHWYQQKPGKAPKLLVYRTSNLESGVPSRFSGSGSGTDFTLTISSLQPEDFATYYCQQSNEDPWTFGGGTKVEIK
notes: Humanized and optimized variant of D2M002-026
- binding result [11]: no binding (tested: about 30 µg/mL (log10 about 1.5))
- binding result [19]: no binding (tested: about 30 µg/mL (log10 about 1.5))
